Experimental data from patent US20210347867A1.

Molecular target: amyloid peptide (not named; Aβ1-42, AβpE3-42 and 4-42 were tested)
Test: SPR (Biacore); reference not named (variants were made to raise the affinity of RHS71/RKA)

B1: humanized NT4X-167 RHS71/RKH (antibody, V domains shown)
VH: QVQLQESGPGLVKPSETLSLTCTVSGFSLSSYGIHWIRQPPGKGLEWIGVMWSGGITNYYPSLKSRVTISRDTSKNQVSLKLSSVTAADTAVYYCARGSRYALDYWGQGTLVTVSS
VL: DIQMTQSPSSLSASVGDRVTITCRASQDISNYLNWYQQKPGKAPKLLIYYTSRLHSGVPSRFSGSGSGTDFTLTISSLQPEDFATYYCQQGHTLPPTFGGGTKLEIK
fold improvement on the Biacore: 2 fold
